The record followed here is patent publication US20120271039, “METHOD FOR PURIFYING ACTIVE GLA-DOMAIN COAGULATION PROTEINS” (LFB BIOTECHNOLOGIES, published 2012).

In data set [1] the target is Coagulation Factor VII (plasma) (Homo sapiens, UniProt P08709 P08709:61-466). Kind of data set: affinity chromatography; Ca/Mg buffer, EDTA elution. As to conditions: tags: plasma FVII (98-99% pure; ACSET, LFB, in column tests); label: biotin. As to the method:
The FVII is eluted with a 20 mM Tris-HCl+10 mM EDTA buffer at pH 7.5. The elution peak is collected according to the OD profile.
In FIG. 15, the injection (1) of human plasma […] concentrate is followed rapidly by the elimination peak (2) of the fraction not retained on the affinity support. The affinity support continues to saturate with the coagulation protein of interest: complexes between (i) the anti-GLA nucleic aptamers of the affinity support and (ii) the human plasma FVII molecules initially contained in the composition to be purified were formed. After running the composition to be purified, a step of washing the column with the previously specified washing buffer is carried out. Then, the elution step is carried out by injecting the elution buffer solution comprising a final concentration of 10 mM of EDTA.

Data set [2] addresses T1, Coagulation Factor IX (recombinant) (Homo sapiens, UniProt P00740 P00740:47-461). As to the kind of experiment: SPR; FIX immobilized; 50 mM Tris, 10 mM CaCl2, 4 mM MgCl2, pH 7.5. As to conditions: tags: BeneFIX (nonacog alfa, Wyeth); correctly gamma-carboxylated. Here is the method: (§1) Each sample was injected sequentially onto the same chip (solid support) containing the immobilized human recombinant FIX. Controls are obtained by injecting blanks containing only run buffer. All the injections were carried out with a flow rate of 30 μl/min for 60 sec; after the injection, run buffer was injected onto the chip at an identical flow rate for 120 sec.
(§2) Elution buffer (10 mM EDTA) was then injected for 60 sec with a flow rate of 30 μl/min to uncouple the aptamer from the immobilized human FIX.
(§3) The chip makes it possible to observe in real time the formation and the disruption of interactions between the immobilized human recombinant FIX and each of the aptamers, having the sequences SEQ ID Nos. 3 and 6 to 35, tested, through surface plasmon resonance (SPR). Binding to the immobilized recombinant human FIX generates an increase in signal expressed in resonance units (RU) recorded by the apparatus (FIG. 6). These analyses are carried out with the Biacore T100 SPR apparatus (GE). The modeling of the recorded interactions is carried out by means of the Biaevaluation software (GE).

Data set [3] addresses T1, Coagulation Factor IX (recombinant). Kind of data set: SPR; highest affinity of the 30 core aptamers; FIX immobilized; 50 mM Tris, 10 mM CaCl2, 4 mM MgCl2, pH 7.5. To be noted: tags: BeneFIX (nonacog alfa, Wyeth); correctly gamma-carboxylated. As to the method: as §1, §2, §3
Background: In SPR one partner is held on a chip, and binding of the other changes the refractive index at the surface.

T1 sequence (P00740 47-461, one chain of several): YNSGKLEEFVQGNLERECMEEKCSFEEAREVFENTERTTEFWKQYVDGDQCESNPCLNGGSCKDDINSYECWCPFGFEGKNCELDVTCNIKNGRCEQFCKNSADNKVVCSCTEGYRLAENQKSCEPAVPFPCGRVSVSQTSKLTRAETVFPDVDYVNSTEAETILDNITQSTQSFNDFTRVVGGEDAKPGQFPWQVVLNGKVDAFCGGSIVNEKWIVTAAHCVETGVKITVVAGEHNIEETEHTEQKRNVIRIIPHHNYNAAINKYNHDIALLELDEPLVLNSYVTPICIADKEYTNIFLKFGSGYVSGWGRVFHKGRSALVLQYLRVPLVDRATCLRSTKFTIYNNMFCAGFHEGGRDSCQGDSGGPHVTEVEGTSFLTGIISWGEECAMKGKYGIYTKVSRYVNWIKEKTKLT
Chain of Coagulation Factor VII (plasma) (P08709 61-466, one chain of several): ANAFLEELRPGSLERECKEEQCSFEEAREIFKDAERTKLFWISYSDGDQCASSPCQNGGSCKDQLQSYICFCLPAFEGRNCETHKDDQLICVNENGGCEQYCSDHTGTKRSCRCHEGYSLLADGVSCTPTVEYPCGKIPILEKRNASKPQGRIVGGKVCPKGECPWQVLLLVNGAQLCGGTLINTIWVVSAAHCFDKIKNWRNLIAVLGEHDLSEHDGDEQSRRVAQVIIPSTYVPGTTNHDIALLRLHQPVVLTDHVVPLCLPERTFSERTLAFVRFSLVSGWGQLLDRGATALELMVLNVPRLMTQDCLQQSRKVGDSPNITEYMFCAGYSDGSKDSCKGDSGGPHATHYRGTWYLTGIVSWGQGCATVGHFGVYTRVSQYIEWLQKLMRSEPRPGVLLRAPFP

With CCGCACACCACGCGCATGACCCCGCGCACACGACTTGAAGTAGC (ssDNA) [Mapt-2-CS], the binding result in data set [1] is recorded as “binds”. Take CGCACATGACTTGAAGTTAAACGCGAATTACAAACCCAGCCCCC (ssDNA) [Mapt-1 core sequence (Mapt-1-CS)]: the binding result in data set [2] was “binds”.

On to CGCACATGACTTGAAGTAAAACGCGAATTACAGACCAAACCCG (ssDNA) [Mapt-1.2-CS], for which, in data set [3], the binding result is given as “binds”.
